Experimental data published in the supplement of paper PMC10724198.
± gives the standard deviation of the averaged measurements.

System: Saccharomyces cerevisiae
Assay: protein stability index of tFT-peptide fusion (C-terminal peptide) (PSI (0-1 scale)); higher = more stable (slower turnover)
Details: genetic background: wild type; temperature: 30 C
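Also: PSI is a weighted mean of sequencing reads over stability bins, variants kept only with over 10 reads, mCherry proximal and sfGFP distal, peptide attached via GGGS linker.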

Compared with VLFSCLSLCWVF, VLGFGSVPAWIE is higher in protein stability index: 0.6081 ± 0.005 for the first, 0.776 ± 0.048 for the second.

First: VLGIVEKRGILR
Second: VLGPWVLSVLWF
The protein stability index of the first is higher: 0.773 ± 0.11 for the first, 0.546 ± 0.022 for the second.

VLHLVGFDADVV and VLKYSVQHREFS are within error of each other in protein stability index: 0.725 ± 0.021 for the first, 0.685 ± 0.019 for the second.

First: VLLAGRLEEGGE
Second: VLLLLLSLLFGV
The protein stability index of the first is higher: 0.65 ± 0.087 for the first, 0.5135 ± 0.0023 for the second.

Compared with VLLSSWLIWLGG, VLMGGCGSWMAV is higher in protein stability index: 0.62 ± 0.01 for the first, 0.6771 ± 0.0044 for the second.

VLPAGAGKGCVG and VLPSSSPPGLRC are within error of each other in protein stability index: 0.653 ± 0.052 for the first, 0.6698 ± 0.0059 for the second.

Going from VLQSLRSLRRLG to VLRRCGRERGIF, the protein stability index rises from 0.549 ± 0.071 to 0.688 ± 0.034.

VLRRRPNDMRKF and VLSEHRGLPLTR are within error of each other in protein stability index: 0.6939 ± 0.0062 for the first, 0.659 ± 0.066 for the second.

VLSLPLPSLSLN and VLSPLIGRICGH are within error of each other in protein stability index: 0.725 ± 0.18 for the first, 0.658 ± 0.01 for the second.

First: VLSSPPVPAPRP
Second: VLSYFFLFSCAS
The protein stability index of the first is higher: 0.701 ± 0.051 for the first, 0.502 ± 0.098 for the second.

VLVGWWGLGGGV and VLVYISDLKRSL are within error of each other in protein stability index: 0.642 ± 0.046 for the first, 0.689 ± 0.14 for the second.

Compared with VLWLPPSPTPNL, VMCECALLVQSR is lower in protein stability index: 0.721 ± 0.1 for the first, 0.563 ± 0.028 for the second.

First: VMCWARGWVGST
Second: VMGFCDWLGVFL
The protein stability index of the first is lower: 0.655 ± 0.05 for the first, 0.728 ± 0.012 for the second.

VMSGPSGARRIW and VMVVKSSSNTNI are within error of each other in protein stability index: 0.701 ± 0.055 for the first, 0.641 ± 0.0077 for the second.

VMWVGAGVSLSC and VNCFVYGKCCSG are within error of each other in protein stability index: 0.6411 ± 0.0041 for the first, 0.648 ± 0.072 for the second.

Compared with VPDRIFRSASQT, VPFDFFVYFFEF is lower in protein stability index: 0.714 ± 0.0049 for the first, 0.5861 ± 0.0018 for the second.

Compared with VPIRSGYLRPNF, VPLRLSTVSFGP is higher in protein stability index: 0.573 ± 0.038 for the first, 0.746 ± 0.12 for the second.

VPPLFALAPPAP and VPPLPPDSCTVT are within error of each other in protein stability index: 0.681 ± 0.029 for the first, 0.699 ± 0.073 for the second.

VPPPPPCTIPFP and VPSLAVPPEGSV are the same in protein stability index: 0.678 ± 0.07 for the first, 0.678 ± 0.06 for the second.

First: VPSPLPLPPLAP
Second: VPVAGSFVGIRF
The protein stability index of the first is higher: 0.722 ± 0.036 for the first, 0.6753 ± 0.004 for the second.

VPWVFVYGEGVR and VPYLPPHLPLPP are within error of each other in protein stability index: 0.734 ± 0.024 for the first, 0.71 ± 0.043 for the second.

Going from VQASQFRFSVPL to VQAWYWGFFCST, the protein stability index rises from 0.632 ± 0.013 to 0.785 ± 0.036.

VQPAGLEFGPLS and VQSVIEPSIRYA are within error of each other in protein stability index: 0.6457 ± 0.0015 for the first, 0.648 ± 0.014 for the second.

Going from VRCSLPSPSPRP to VRDGPRCPVACP, the protein stability index falls from 0.77 ± 0.015 to 0.621 ± 0.02.

Compared with VREMGSPGLYRP, VRFRCIPGSPVC is lower in protein stability index: 0.713 ± 0.01 for the first, 0.643 ± 0.0094 for the second.

First: VRFVVVRRFRLP
Second: VRGKYNNGNKKM
The protein stability index of the first is lower: 0.649 ± 0.0076 for the first, 0.675 ± 0.013 for the second.

VRGMGGIGRCVG and VRGRGSGGGVAG are within error of each other in protein stability index: 0.657 ± 0.074 for the first, 0.675 ± 0.065 for the second.

Going from VRGVCGVGFGVW to VRHYSSNFAPFI, the protein stability index rises from 0.604 ± 0.046 to 0.676 ± 0.025.

VRIGSEGPGREE and VRLHVPLQRFMK are within error of each other in protein stability index: 0.677 ± 0.03 for the first, 0.73 ± 0.029 for the second.

Compared with VRLIQLLFTLRT, VRLRGEGCGWGG is higher in protein stability index: 0.53 ± 0.062 for the first, 0.7158 ± 0.0022 for the second.

VRQKTPREQRVY and VRQRADSCEAHA are within error of each other in protein stability index: 0.701 ± 0.059 for the first, 0.659 ± 0.056 for the second.

VRQSCGSRGFFF and VRRAGVGEGITG are within error of each other in protein stability index: 0.729 ± 0.023 for the first, 0.671 ± 0.052 for the second.

VRRGGGGGGYGI and VRRGGRARRRGS are within error of each other in protein stability index: 0.72 ± 0.031 for the first, 0.698 ± 0.016 for the second.

Going from VRRHPQYPLLRV to VRSLLGLPLPGL, the protein stability index rises from 0.541 ± 0.0099 to 0.788 ± 0.041.

Going from VRSSLDGDGLCG to VRTSGRCCPTGP, the protein stability index falls from 0.6869 ± 0.0046 to 0.641 ± 0.036.

Going from VRVFLSNALFHH to VRWCLPPLFTPL, the protein stability index rises from 0.596 ± 0.019 to 0.693 ± 0.059.

Going from VRWGVVGVQGNW to VRYGSHRNMSLL, the protein stability index rises from 0.678 ± 0.021 to 0.819 ± 0.053.

First: VSDLGRFVDRRV
Second: VSEFTSHQYDSE
The protein stability index of the first is lower: 0.636 ± 0.029 for the first, 0.746 ± 0.048 for the second.

VSGASHLCQYIK and VSGFEGCYFSDL are within error of each other in protein stability index: 0.724 ± 0.072 for the first, 0.712 ± 0.039 for the second.

First: VSGFFFWRSSFV
Second: VSGLRRLVAFAR
The protein stability index of the first is higher: 0.678 ± 0.028 for the first, 0.518 ± 0.0061 for the second.

In the case of VSGVVHRVVVSR, the protein stability index is reported as 0.7 ± 0.043.
